Experimental data as given in PMC9482650, “Quantitative fragmentomics allow affinity mapping of interactomes” (Nature Communications, 2022).

T1: MPP7, Q5T2T1
T1 sequence (Q5T2T1 134-230, limits assumed, looked up): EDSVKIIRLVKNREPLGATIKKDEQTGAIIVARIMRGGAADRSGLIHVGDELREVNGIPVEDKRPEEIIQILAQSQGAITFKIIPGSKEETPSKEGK

T2: RAPGEF6, Q8TEU7
T2 sequence (Q8TEU7 525-625, limits assumed, looked up): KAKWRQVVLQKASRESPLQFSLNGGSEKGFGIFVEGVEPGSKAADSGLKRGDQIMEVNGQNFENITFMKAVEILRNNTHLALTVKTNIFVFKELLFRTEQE

T3: RADIL, Q96JH8
T3 sequence (Q96JH8 971-1071, limits assumed, looked up): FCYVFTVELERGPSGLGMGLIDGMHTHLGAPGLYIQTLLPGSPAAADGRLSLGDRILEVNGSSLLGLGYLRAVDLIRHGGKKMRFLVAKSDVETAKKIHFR

T4: GRIP1_2, Q9Y3R0
T4 sequence (Q9Y3R0 145-248, limits assumed, looked up): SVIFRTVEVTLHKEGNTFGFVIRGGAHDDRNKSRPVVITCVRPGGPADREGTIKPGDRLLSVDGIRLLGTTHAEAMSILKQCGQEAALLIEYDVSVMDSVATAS

T5: LRRC7, Q96NW7
T5 sequence (Q96NW7 1440-1537, limits assumed, looked up): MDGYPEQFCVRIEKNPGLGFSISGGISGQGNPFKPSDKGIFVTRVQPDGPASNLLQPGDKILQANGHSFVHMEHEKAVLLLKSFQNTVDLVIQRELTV

T6: MPDZ_5, O75970
T6 sequence (O75970 695-796, limits assumed, looked up): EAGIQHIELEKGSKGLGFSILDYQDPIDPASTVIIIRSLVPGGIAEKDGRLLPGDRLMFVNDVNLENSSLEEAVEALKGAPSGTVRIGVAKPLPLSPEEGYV

T7: MPDZ_10, O75970
T7 sequence (O75970 1624-1722, limits assumed, looked up): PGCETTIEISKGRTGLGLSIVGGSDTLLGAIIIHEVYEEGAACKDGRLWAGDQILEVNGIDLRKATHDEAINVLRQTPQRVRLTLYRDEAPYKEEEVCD

T8: MPP6, Q9NZW5
T8 sequence (Q9NZW5 125-219, limits assumed, looked up): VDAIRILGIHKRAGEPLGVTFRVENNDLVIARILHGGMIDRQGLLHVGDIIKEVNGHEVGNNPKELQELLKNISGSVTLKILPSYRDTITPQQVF

T9: GRIP1_7, Q9Y3R0
T9 sequence (Q9Y3R0 999-1096, limits assumed, looked up): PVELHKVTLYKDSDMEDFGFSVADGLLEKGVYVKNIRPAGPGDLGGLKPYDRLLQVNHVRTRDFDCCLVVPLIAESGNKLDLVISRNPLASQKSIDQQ

T10: DFNB31_2, Q9P202
T10 sequence (Q9P202 274-371, limits assumed, looked up): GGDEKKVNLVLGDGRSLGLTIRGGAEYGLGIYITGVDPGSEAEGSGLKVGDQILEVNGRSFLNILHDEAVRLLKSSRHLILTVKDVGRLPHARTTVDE

B1: CACNA1D, Q01668 (peptide)
chain: ADEMICITTL

molecular target: T1, MPP7, Q5T2T1; assay: holdup assay; design: key: below the threshold = too weak to quantify, mostly under pKd 3.1 to 4; conditions: plain residues with an end cap or a label only (N-terminal biotin on a linker: ado-ado)

Row | pKd | Binder
1 | below the threshold | B1

molecular target: FRMPD4, Q14CM0; assay: holdup assay; design: key: below the threshold = too weak to quantify, mostly under pKd 3.1 to 4; conditions: plain residues with an end cap or a label only (N-terminal biotin on a linker: ado-ado)
Sequence (Q14CM0 67-160): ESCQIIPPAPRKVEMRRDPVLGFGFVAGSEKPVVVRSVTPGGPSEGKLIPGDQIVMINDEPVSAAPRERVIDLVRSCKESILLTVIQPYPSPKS

Row | pKd | Binder
2 | 3.97 | B1

molecular target: T2, RAPGEF6, Q8TEU7; assay: holdup assay; design: key: below the threshold = too weak to quantify, mostly under pKd 3.1 to 4; conditions: plain residues with an end cap or a label only (N-terminal biotin on a linker: ado-ado)

Row | pKd | Binder
3 | 3.65 | B1

molecular target: CASK, O14936; assay: holdup assay; design: key: below the threshold = too weak to quantify, mostly under pKd 3.1 to 4; conditions: plain residues with an end cap or a label only (N-terminal biotin on a linker: ado-ado)
Sequence (O14936 487-570): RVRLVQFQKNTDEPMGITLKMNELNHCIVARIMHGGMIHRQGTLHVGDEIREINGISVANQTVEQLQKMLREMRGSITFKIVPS

Row | pKd | Binder
4 | below the threshold | B1

molecular target: MAST1, Q9Y2H9; assay: holdup assay; design: key: below the threshold = too weak to quantify, mostly under pKd 3.1 to 4; conditions: plain residues with an end cap or a label only (N-terminal biotin on a linker: ado-ado)
Sequence (Q9Y2H9 962-1065): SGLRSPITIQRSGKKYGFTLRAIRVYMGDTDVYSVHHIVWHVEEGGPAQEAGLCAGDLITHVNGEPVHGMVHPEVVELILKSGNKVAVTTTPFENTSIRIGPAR

Row | pKd | Binder
5 | 5.06 | B1

molecular target: LDB3, O75112; assay: holdup assay; design: key: below the threshold = too weak to quantify, mostly under pKd 3.1 to 4; conditions: plain residues with an end cap or a label only (N-terminal biotin on a linker: ado-ado)
Sequence (O75112 1-94): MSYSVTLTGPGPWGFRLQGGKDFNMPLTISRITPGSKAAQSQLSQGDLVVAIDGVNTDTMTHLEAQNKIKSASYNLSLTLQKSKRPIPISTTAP

Row | pKd | Binder
6 | below the threshold | B1

molecular target: HTRA2, O43464; assay: holdup assay; design: key: below the threshold = too weak to quantify, mostly under pKd 3.1 to 4; conditions: plain residues with an end cap or a label only (N-terminal biotin on a linker: ado-ado)
Sequence (O43464 355-458): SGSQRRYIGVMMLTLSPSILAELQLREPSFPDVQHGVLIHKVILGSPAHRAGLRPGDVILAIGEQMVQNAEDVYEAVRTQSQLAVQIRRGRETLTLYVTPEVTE

Row | pKd | Binder
7 | 3.83 | B1

molecular target: MAGI2_5, Q86UL8; assay: holdup assay; design: key: below the threshold = too weak to quantify, mostly under pKd 3.1 to 4; conditions: plain residues with an end cap or a label only (N-terminal biotin on a linker: ado-ado)
Sequence (Q86UL8 915-1017): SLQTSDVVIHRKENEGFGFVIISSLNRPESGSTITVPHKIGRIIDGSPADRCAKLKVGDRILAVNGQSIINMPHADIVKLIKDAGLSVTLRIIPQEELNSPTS

Row | pKd | Binder
8 | 4.76 | B1

molecular target: T3, RADIL, Q96JH8; assay: holdup assay; design: key: below the threshold = too weak to quantify, mostly under pKd 3.1 to 4; conditions: plain residues with an end cap or a label only (N-terminal biotin on a linker: ado-ado)

Row | pKd | Binder
9 | 4.62 | B1

molecular target: MAGI2_3, Q86UL8; assay: holdup assay; design: key: below the threshold = too weak to quantify, mostly under pKd 3.1 to 4; conditions: plain residues with an end cap or a label only (N-terminal biotin on a linker: ado-ado)
Sequence (Q86UL8 600-682): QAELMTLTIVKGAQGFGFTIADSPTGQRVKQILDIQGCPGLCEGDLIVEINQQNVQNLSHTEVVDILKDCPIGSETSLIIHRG

Row | pKd | Binder
10 | 3.56 | B1

molecular target: T4, GRIP1_2, Q9Y3R0; assay: holdup assay; design: key: below the threshold = too weak to quantify, mostly under pKd 3.1 to 4; conditions: plain residues with an end cap or a label only (N-terminal biotin on a linker: ado-ado)

Row | pKd | Binder
11 | below the threshold | B1

molecular target: GIPC2, Q8TF65; assay: holdup assay; design: key: below the threshold = too weak to quantify, mostly under pKd 3.1 to 4; conditions: plain residues with an end cap or a label only (N-terminal biotin on a linker: ado-ado)
Sequence (Q8TF65 112-203): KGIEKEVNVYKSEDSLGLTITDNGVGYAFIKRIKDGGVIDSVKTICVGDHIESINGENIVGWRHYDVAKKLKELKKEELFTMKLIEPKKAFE

Row | pKd | Binder
12 | below the threshold | B1

molecular target: MAGI3_2, Q5TCQ9; assay: holdup assay; design: key: below the threshold = too weak to quantify, mostly under pKd 3.1 to 4; conditions: plain residues with an end cap or a label only (N-terminal biotin on a linker: ado-ado)
Sequence (Q5TCQ9 398-503): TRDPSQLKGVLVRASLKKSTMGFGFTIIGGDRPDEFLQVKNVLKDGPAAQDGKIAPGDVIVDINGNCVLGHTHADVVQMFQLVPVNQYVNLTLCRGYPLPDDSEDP

Row | pKd | Binder
13 | below the threshold | B1

molecular target: T5, LRRC7, Q96NW7; assay: holdup assay; design: key: below the threshold = too weak to quantify, mostly under pKd 3.1 to 4; conditions: plain residues with an end cap or a label only (N-terminal biotin on a linker: ado-ado)

Row | pKd | Binder
14 | 3.8 | B1

molecular target: GRIP2_6, Q9C0E4; assay: holdup assay; design: key: below the threshold = too weak to quantify, mostly under pKd 3.1 to 4; conditions: plain residues with an end cap or a label only (N-terminal biotin on a linker: ado-ado)
Sequence (Q9C0E4 648-740): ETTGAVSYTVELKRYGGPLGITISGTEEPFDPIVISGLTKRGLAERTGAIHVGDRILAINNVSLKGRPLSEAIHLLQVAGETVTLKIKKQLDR

Row | pKd | Binder
15 | below the threshold | B1

molecular target: PTPN3, P26045; assay: holdup assay; design: key: below the threshold = too weak to quantify, mostly under pKd 3.1 to 4; conditions: plain residues with an end cap or a label only (N-terminal biotin on a linker: ado-ado)
Sequence (P26045 505-587): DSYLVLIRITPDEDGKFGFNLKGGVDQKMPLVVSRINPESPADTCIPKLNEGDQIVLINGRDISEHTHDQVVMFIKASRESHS

Row | pKd | Binder
16 | 4.62 | B1

molecular target: IL16_1, Q14005; assay: holdup assay; design: key: below the threshold = too weak to quantify, mostly under pKd 3.1 to 4; conditions: plain residues with an end cap or a label only (N-terminal biotin on a linker: ado-ado)
Sequence (Q14005 210-306): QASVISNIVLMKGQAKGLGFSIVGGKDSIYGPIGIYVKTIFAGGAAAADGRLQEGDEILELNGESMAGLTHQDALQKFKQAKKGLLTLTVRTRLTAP

Row | pKd | Binder
17 | below the threshold | B1

molecular target: DLG4_3, P78352; assay: holdup assay; design: key: below the threshold = too weak to quantify, mostly under pKd 3.1 to 4; conditions: plain residues with an end cap or a label only (N-terminal biotin on a linker: ado-ado)
Sequence (P78352 306-403): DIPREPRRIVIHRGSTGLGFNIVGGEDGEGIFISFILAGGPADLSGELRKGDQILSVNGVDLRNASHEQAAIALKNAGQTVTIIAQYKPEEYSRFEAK

Row | pKd | Binder
18 | below the threshold | B1

molecular target: PDZRN4_1, Q6ZMN7; assay: holdup assay; design: key: below the threshold = too weak to quantify, mostly under pKd 3.1 to 4; conditions: plain residues with an end cap or a label only (N-terminal biotin on a linker: ado-ado)
Sequence (Q6ZMN7 213-318): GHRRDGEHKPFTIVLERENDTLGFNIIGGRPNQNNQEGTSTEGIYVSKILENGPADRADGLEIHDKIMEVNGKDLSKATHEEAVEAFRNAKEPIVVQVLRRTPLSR

Row | pKd | Binder
19 | 3.72 | B1

molecular target: Inadl_4, Q8NI35; assay: holdup assay; design: key: below the threshold = too weak to quantify, mostly under pKd 3.1 to 4; conditions: plain residues with an end cap or a label only (N-terminal biotin on a linker: ado-ado)
Sequence (Q8NI35 547-651): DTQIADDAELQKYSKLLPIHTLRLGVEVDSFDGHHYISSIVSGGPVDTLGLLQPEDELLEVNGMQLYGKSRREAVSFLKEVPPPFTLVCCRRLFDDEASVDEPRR

Row | pKd | Binder
20 | below the threshold | B1

molecular target: Inadl_2, Q8NI35; assay: holdup assay; design: key: below the threshold = too weak to quantify, mostly under pKd 3.1 to 4; conditions: plain residues with an end cap or a label only (N-terminal biotin on a linker: ado-ado)
Sequence (Q8NI35 238-335): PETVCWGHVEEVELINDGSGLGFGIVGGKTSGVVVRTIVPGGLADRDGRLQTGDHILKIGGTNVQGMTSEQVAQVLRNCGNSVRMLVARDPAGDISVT

Row | pKd | Binder
21 | below the threshold | B1

molecular target: T6, MPDZ_5, O75970; assay: holdup assay; design: key: below the threshold = too weak to quantify, mostly under pKd 3.1 to 4; conditions: plain residues with an end cap or a label only (N-terminal biotin on a linker: ado-ado)

Row | pKd | Binder
22 | below the threshold | B1

molecular target: NHERF4_1, Q86UT5-2; assay: holdup assay; design: key: below the threshold = too weak to quantify, mostly under pKd 3.1 to 4; conditions: plain residues with an end cap or a label only (N-terminal biotin on a linker: ado-ado)
Sequence (Q86UT5 other isoform, or with tags, fused parts or gaps): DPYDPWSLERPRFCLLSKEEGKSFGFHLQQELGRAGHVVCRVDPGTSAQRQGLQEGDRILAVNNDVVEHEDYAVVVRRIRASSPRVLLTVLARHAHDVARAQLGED

Row | pKd | Binder
23 | 4.52 | B1

molecular target: FRMPD2_3, Q68DX3; assay: holdup assay; design: key: below the threshold = too weak to quantify, mostly under pKd 3.1 to 4; conditions: plain residues with an end cap or a label only (N-terminal biotin on a linker: ado-ado)
Sequence (Q68DX3 1073-1166): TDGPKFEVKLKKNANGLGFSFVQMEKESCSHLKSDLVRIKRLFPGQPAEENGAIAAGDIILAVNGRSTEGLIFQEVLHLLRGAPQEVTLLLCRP

Row | pKd | Binder
24 | below the threshold | B1

molecular target: T7, MPDZ_10, O75970; assay: holdup assay; design: key: below the threshold = too weak to quantify, mostly under pKd 3.1 to 4; conditions: plain residues with an end cap or a label only (N-terminal biotin on a linker: ado-ado)

Row | pKd | Binder
25 | below the threshold | B1

molecular target: T8, MPP6, Q9NZW5; assay: holdup assay; design: key: below the threshold = too weak to quantify, mostly under pKd 3.1 to 4; conditions: plain residues with an end cap or a label only (N-terminal biotin on a linker: ado-ado)

Row | pKd | Binder
26 | below the threshold | B1

molecular target: T9, GRIP1_7, Q9Y3R0; assay: holdup assay; design: key: below the threshold = too weak to quantify, mostly under pKd 3.1 to 4; conditions: plain residues with an end cap or a label only (N-terminal biotin on a linker: ado-ado)

Row | pKd | Binder
27 | below the threshold | B1

molecular target: T10, DFNB31_2, Q9P202; assay: holdup assay; design: key: below the threshold = too weak to quantify, mostly under pKd 3.1 to 4; conditions: plain residues with an end cap or a label only (N-terminal biotin on a linker: ado-ado)

Row | pKd | Binder
28 | below the threshold | B1
